Measurements as given in the DeepSol protein solubility set.

Experiment: soluble on expression in E. coli; label from the status in PepcDB or PDB records

Sequence | soluble on expression in E. coli
MGSDKIHHHHHHMGGRGSGKTRAGAEWVSGMALGLPPFAGKPSGHIALVGETFNDAREVMVDGPSGILSVSRLVRPRYEASRRRLIWDNGAVATLFSSEDPDSLRGPQFDAAWCDELAKWKNPQETWDMLQFGLRLGDNPRQVVTTTPRAVPLLKALLTDRTVSMTHMRTAENAGNLAEGFMQTIARRYAGTRLGRQELDGELVEERPGALWSRDRIEQCFEENPPPLARIVVAVDPPASSGKASDACGIVVAGIDAEGVGHVLADESMTMAKPHQWARRAIALYHTHEADAIVAEVNQGGEMVAAEDPSVPVLKRRASRGKWLRAEPVAALYEQGRVRHAGRFPALEDEMCDFAPEGLSSGRSPDRLDALVWALGELMLGADHKPRIRRFG | not soluble
MVQEANVRDKMRGTGVSVTRSGDNIILNMPNNVTFDSSSATLKPAGANTLTGVAMVLKEYPKTAVNVIGYTDSTGGHDLNMRLSQQRADSVASALITQGVDASRIRTQGLGPANPIASNSTAEGKAQNRRVEITLSPLLEHHHHHH | not soluble
MTEHSLWRFSRALHRALNDRQTEELATIIDDNIDWAIYGPIDMFPFFGARQGKAAVLEVCRQIADSVRIYRYHRESVMLGIDSAASMVRYSLTAAGTNRPISVRMALFTQFQNGRLTNLRMVLDTFDLVEQALGRPIHLPKIA | soluble
MNKSNNEPFNQVLDKHLSRRNFVKSGLGLGAMTAFAGMGLTGCGSDSSSSPIPVDPVPPLPPTKSSAKLNFTSVKGARLNAVVVPEGYSAQVLAPWGTPLNAKAAPWKADGSNTADDQANSVGMHHDGMHFFPLNQAGDDGLLCINHEYIDEIALHPNGPTVDATTGLRTIVDEVRKEINAHGVSVVRIKLTNNQWEVVYNDKHNRRFTGATVMDIAGPLAYSPLLETRYSPDGSQARGTLNNCGNGYTPWGTYLTCEENWPEYFVNRSTLTRDQIRIGISKTSSRYGWDDLAGQDEERLDEFSRFDVTPKGVSARDDYRNEANGHGYIVEIDPYNPTSRAIKRTALGRFRHEGCTFGKLSEGQPVVFYSGHDARFEYLYKFVSAAPWNPQDANSSNRLEIGDKYMNEGTLYAAKFNENGVGAWLPLTLDSQTTDGKTLGNSFASLADIILNTAGAADLLGATPMDRPEWCAVDPFTGSVYLTLTNNSKRTEANPANPRLKNNFGHIIRWDEADKETEFTWDIFVFGSPSDGNAETNLSGLTDLNQFASPDGLAFDKRGILWVQTDNGAEEVAEETNDQMLAIVPSTLLDSANKQTSVTAKNQMELKRFFVGPNDCEVTGFAISPDYKTVFANIQHPGNWPYSNNAAEVTPTGVVLRPRAATVVIRKLDGKEVAVLEHHHHHH | soluble
MKTRLNKTSLNQALLPTSTAGSLPKPLWLAEPETLWSPWKLQGEELITGKHDALRLSLQDQQLAGIDIVSDGEQTRQHFVTTFIEHLNGVDFSKRKIVKIRDRYDASVPTVVGPVSRQKSVFVEDAKFLRKQTTQPIKWALPGPMTMIDTLYDDHYKSREKLAWEFAKILNEEAKELEAAGVDIIQFDEPAFNVFFDEVNDWGIACLERAIEGLKCETAVHICYGYGIKANTDWKKTLGSEWRQYEEVFPKLQKSNIDIISLECHNSHVPMELLELIRGKKVMVGAIDVATDTIETAEEVADTLRKALKFVDADKLYPCTNCGMTPLSHQVTRGKLNALSAGAEIVRKELLALR | soluble
MGWKMQATVTEIGKHAIDDSEKMIILFGETATDTLKQHAVIQSFPEKDQVTLAEGDHLKIGDTNYTITKVGSFANSNLQSIAHSTLIFADAPTDEDDVIRNGVYLTPHQLPKITIGTTIDYLVNGA | soluble
MSPLPPPPDIQHEFDKNQDPHETNLALRRLYPQIRERENERHIPRRWDLRQASSYLDISQSGYGVTFKKNVTVAEDKDPAGVVRADAFIQQCIGVYYFEVRILEGHSGCMGIGLSKKDCDLNRMPGWDPGCFGYHGDDGNFFLASGVGQAYGPKFGPGDVIGCGIDTFYHYVFFTKNGKHLGIAHTSPTALKELYPTVGFKTRGEKLVANFGVKPFEFDFEAYRQHLMNKKIHLLENIKMPENFGKQMNRIVSSFLGTTGALATLQKFEETTKPEVPIDHEYYAQRKEITDMILKAARGAEIHEKIEKYFPGLVEDDANVHLLILCLRYIDLANTLHEPPNCFTNSTTGRSPSPTEIRARPPKLLKGSQCKTTKRTREAQRRSANSQVHTPPPVRLTNAKATEELYLKDAKIERFYIDQDTEEEMLHIDGVSMPTKMFVELEKSGQYRKLNYILKMGREIMKVAGEMRGNIAPEARKVVEIATSMVSSPERPAKHPLSFALRRFIANSVVDMICYYVHHKREGKSTKRPRGTSTGEIPGSSSLRMFSELRNLFTGWKGLHIDYSTNDKKMAGIHFVRKMILEEPNFNEKEIIYTDEPMELAHERPDPPPREIIRQQRNEFQF | not soluble
AHHHHHHGSAELKVSAIKEGTVIDHIPAGKGLKVIQILGLGELKNGGAVLLAMNVPSKKLGRKDIVKVEGKFLSEEEVNKIALVAPTATVNIIREYKVVEKFKVEIPDVIEGILKCGNPNCITHYEYVTPKFYVISKEPLKVRCHYCERTMEEEEILANL | soluble
MKKEHSPKNKVRHFASVEHLNPEAVAAFVDNELSPAAAHRAKIHLVHCAECREEIHRQRRAADRLRDGNNSDMRPSSDLIAKLQSIAACCPDGPTAEEVPSSPQSLLDKLDGVARNIYKTTKTLREARNEALRQYDR | not soluble
MGSDKIHHHHHHETRECIYYNANWELERTNQSGLERCEGEQDKRLHCYASWRNSSGTIELVKKGCWLDDFNCYDRQECVATEENPQVYFCCCEGNFCNERFTHLPEPG | soluble
MEKAIHNLGKDARLHIIHILLQNRSKKELADELGITPAAITKYLKGITHPSDEIIEKCIEIASEDEEYHEIIKVIVSDITEALMELLREIGIEKMIDNEDIQKLKKLLDKAFDKMLSTSPSFV | not soluble
MTETIKCIGCGVEIQTEDKNEVGYAPASSLEKEQVICQRCFRLKHYNEIQDVSLTDDDFLRILNGIGKSDALVVKIVDIFDFNGSWLPGLHRFVGNNKVLLVGNKADLIPKSVKHDKVKHWMRYSAKQLGLKPEDVFLISAAKGQGIAELADAIEYYRGGKDVYVVGCTNVGKSTFINRMIKEFSDETENVITTSHFPGTTLDLIDIPLDEESSLYDTPGIINHHQMAHYVGKQSLKLITPTKEIKPMVFQLNEEQTLFFSGLARFDYVSGGRRAFTCHFSNRLTIHRTKLEKADELYKNHAGDLLSPPTPEELENMPELVKYEFNIREPKTDVVFSGLGWVTVNEPGAKIVAHVPKGVSVSLRKSLI | soluble
MIHYRMDQPDRVRCSVCGGIADEVDETYPEEGDFILVIYRCRDCGHLEKRQYGKPVKIID | not soluble
MSLEKQFFHPDRVKYDKDCFTIEGKDIFILSAAFHYFRCPQELWRDRFRKIKEAGFNTVETYVPWNWHERNMPKSVDDYSQCNFDDLKAWLHMAHEEFGLYTIVRPGPFICAEWAGGAYPRWLAKFCPDSYDTSFWLRSNHPEHMKWSEHWYNAVCRVFSEEQLTRKQPGEKGIIMVQLENEYIYFDMESEKKEEFLRVLSDACIRNGIDVPLFTCVTPEVRGSHDPVISQLFDMDNQYVWWNMHEAKSRIEKLKAEQPNAPAFVCELQGGWFSTVGGRLSEDSYLDGRHARGMALMAMAGGSTGLNYYMFFGGTHFAGWGARRMTTTYDYGAPLKENGGVGEKYAAVKGIGEVVDKFGGLLVRSRPVRFDVQGADNLTIGIRRAADGTLFVFLLNRDKKQAFRQLVNLTVEGKPMRIDCQLAALDSKLLVVHAGTDTVEWYPREQTLPEREGHHHHHH | soluble
MTNDDKCTSFFDKNYQTPEFIENKKRQAQQGRRRFLKSAAGMGALASLPALSVSAKAQTSLNELLKTLVKTDPWLTLDATLNQLLPSSPTGPSASEIRATAYLYQVMTVQPTEQDEKDFILKGVGWLNGYANSEKSANFAQLSFADKEQLLRGISNSTAGQNWLNTLLGYIFQAMLSPASYGGNPDGIGWAWLEHQAGFPMPEKGQRYFELPTRARIDLISRVNYDAKRLASSRNKSHQGTKKS | not soluble
MVTINNARKILQRVDTLPLYLHAYAFHLNMRLERVLPADLLDIASENNLRGVKIHVLDGERFSLGNMDDKELSAFGDKARRLNLDIHIETSASDKASIDEAVAIALKTGASSVRFYPRYEGNLRDVLSIIANDIAYVRETYQDSGLTFTIEQHEDLKSHELVSLVKESEMESLSLLFDFANMINANEHPIDALKTMAPHITQVHIKDALIVKEPGGLGHKACISGQGDMPFKALLTHLICLGDDEPQVTAYGLEEEVDYYAPAFRFEDEDDNPWIPYRQMSETPLPENHLLDARLRKEKEDAINQINHVRNVLQQIKQEANHLLNH | soluble
MSLAIQPLAYRMRPKALDEIVGQTHLVGKDKIIYRMVKAKQLSSMILYGPPGIGKTSIASAIAGSTKYAFRTLNAVTNNKKDMEVVAAEAKMSGTVILLLDEVHRLDKAKQDFLLPLLESGAIILIGATTSNPYIAINPAIRSRTQIFELKPLTVEDIMITMDRALSDKERGLGNYDVEIDEVAKKHFATASNGDVRSALNALELAVISSEPNEDGVIHITLDVAEECLQKKSLAHDKDGDAHYDVLSAFQKSVRGSDVNAALHYMGRLIEAGDLVSISRRMLVMAYEDIGLASPQAGAHTLAAIQTAEKVGFPEARIPLANAVIELCLSPKSNSAIMAIDAALADIRQGKSGEVPDHLRDGHYSGAEKLGRAIDYKYPHNYDNAWVDQQYLPDRLKNKLYYAPKFTSKFEQTIAGVYQKINENKAKKEGHHHHHH | soluble
MGSDKIHHHHHHMFKTAVGHSNDPDSLSAIEEVLQQCVSSLGGDIPKAGILFSAIDFEHALILQQIHQFFPGIELIGGTTDGEISSVLEFQQDSITLMLFCSDEVEINAGVGRKVSVDPIAVTKQAVEQAKAKTTETPRLCLTHPESLTISGVSILHGLKLALGQNVPIFGGLAGDQSRYQNTYQFFQTEVLSDSVPILLFSGTILFSHGVASGWHPIGQISQVTKVDKNILYEIDGKPALDFYHHYLGLLPPSMEYPLAVFDQNRDNFYIRAPIAYNQDSGSITFFADIPDRAVIQIAEACYEDILAASKASFMNALNNYPGAEPSAVLFFSCVARRQILGTRAKEEYQNTKLCLTYHLPGCGFYSYGEIAPIDGMSQTQFHNETFVTLILGTR | not soluble
MTKKKAHKPGSATIALNKRARHEYFIEEEFEAGLALQGWEVKSLRAGKANISDSYVLLRDGEAFLFGANITPMAVASTHVVCDPTRTRKLLLNQRELDSLYGRVNREGYTVVALSLYWKNAWCKVKIGVAKGKKQHDKRSDIKEREWQVDKARIMKNAHR | soluble
MKFPFHPWRRLLLCALPFAALLTACDDGKKEPPPKPAEVTTYNSVPWDALPATSDADLLAGFNAWRSACARLAKDPVWGEPCASATTVAADPTAVRAFLQERMQVYSLRSSSNGDQGLITGYYEPVYHGSLSQGEKTPVPVYGVPDDLVVVALESVYPELKGKRLRGRLEGRVLKPYDDAATIRDNGSSAPVLAWLGDPMDLQFLQIQGSGRIQLEDGRQLRIGYGDQNGHPYKPVGRWLVEQGLVPKEEISMKRIRDWAEANPQRVSELLASNPSFVFFSLRPDSDEGPRGSLNVPLTDGYSVAIDRKVIPLGSLMWLSTTRPDDGSAVVRPVAAQDTGGAIVGEVRADLFWGTGDAAGELAGHMKQPGRLWLLWPKGAPLPAS | not soluble
MGHHHHHHSHPQLLHFVDQYREQLIARVTSVEVVLDKLHGQVLSQEQYERVLAENTRPSQMRKLFSLSQSWDRKCKDGLYQALKETHPHLIMELWEKG | not soluble
